The results in this text go back to PMC7954794, “Protein context shapes the specificity of SH3 domain-mediated interactions in vivo” (Nature Communications, 2021).

Common to all, as to type: cell-based, Saccharomyces cerevisiae
Test [1] relates to BEM1-2. The experiment in a line: DHFR-PCA on solid medium, bait BEM1-2 (Fig. 1B). The conditions noted are these: bait BEM1-2, label = prey; for medrep (log2 median colony size normalized to plate background, PCA score): 2-8 replicates; for Ratio (SH3-deleted/WT medrep): only significant differences showed, PPIs completely lost have a ratio of 0.1 and the gained PPIs 2.5. An excerpt: (§1) Supplement 41467_2021_21873_MOESM8_ESM.xlsx, sheet "Fig1B" | column: medsize; medrep; Ratio; Score

Test [2] has as its system BOI1. The experiment in a line: DHFR-PCA on solid medium, bait BOI1 (Fig. 1B). The conditions noted are these: bait BOI1, label = prey; for medrep (log2 median colony size normalized to plate background, PCA score): 3-8 replicates; for Ratio (SH3-deleted/WT medrep): only significant differences showed, PPIs completely lost have a ratio of 0.1 and the gained PPIs 2.5.
Excerpt: as §1

For test [3], the system named is BOI2. The experiment in a line: DHFR-PCA on solid medium, bait BOI2 (Fig. 1B). The following applies: bait BOI2, label = prey; 3-8 replicates.
Excerpt: as §1

The subject of test [4] is BBC1. The experiment in a line: DHFR-PCA on solid medium, bait BBC1 (Fig. 1B). The conditions noted are these: bait BBC1, label = prey; for medrep (log2 median colony size normalized to plate background, PCA score): 2-4 replicates.
Excerpt: as §1

Test [5] has as its system BEM1-1. Nature of the test: DHFR-PCA on solid medium, bait BEM1-1 (Fig. 1B). The following applies: bait BEM1-1, label = prey; for medrep (log2 median colony size normalized to plate background, PCA score): 2-8 replicates; for Ratio (SH3-deleted/WT medrep): only significant differences showed, PPIs completely lost have a ratio of 0.1 and the gained PPIs 2.5.
Excerpt: as §1

Test [6] concerns ABP1. Nature of the test: DHFR-PCA on solid medium, bait ABP1 (Fig. 1B). The following applies: bait ABP1, label = prey; for medrep (log2 median colony size normalized to plate background, PCA score): 2-4 replicates.
Excerpt: as §1

Setting [7] is: only significant differences showed, PPIs completely lost have a ratio of 0.1 and the gained PPIs 2.5.

B1: YKL051W (protein, UniProt P35735 1-353, looked up)
Protein SFK1: MIQFKSPGNWLFIVPWIAFIPWYGMLIAMLICWASQGHPIYWFMHSEQFPVYISDIGATNLRPLFISCAGWQGLGYVITVALEFFQRSGYLPFQLKKKDPSISDSTSYAEKLHSGKYLMPPYYTKDERNLIFAAFVLGSIGELALLFSSIFSTALYHRVHIAMVSVFVVFMFLSTCCLIAEYFLMGRHYASVHPLASPHFNPQSSEKSFNQDYNTVDELPWYKWKGHVWNKFTISATLKVIWLTLAVVWAICFGAINDRSKSACFEWLLAFWFGIIFMILSADFYLGGRYRQSRYFNHVESFSGYYKYDKALGLYHSEDVLPSDDNAGVIATETASSNIYNNSSSNESIQVVV
On to B1, for which the “medrep (log2 median colony size normalized to plate background, PCA score)” value in test [1] was 1.764; in test [2], 2.409; in test [3], 3.168; in test [4], 4.283; in test [5], 3.661. The “Ratio (SH3-deleted/WT medrep)” value in test [1] is recorded as 0.482; in test [2] it was 1.668; in test [5] it was 0.1.

B2: YGR281W (protein, UniProt P53049 1-1477, looked up)
Oligomycin resistance …: MTITVGDAVSETELENKSQNVVLSPKASASSDISTDVDKDTSSSWDDKSLLPTGEYIVDRNKPQTYLNSDDIEKVTESDIFPQKRLFSFLHSKKIPEVPQTDDERKIYPLFHTNIISNMFFWWVLPILRVGYKRTIQPNDLFKMDPRMSIETLYDDFEKNMIYYFEKTRKKYRKRHPEATEEEVMENAKLPKHTVLRALLFTFKKQYFMSIVFAILANCTSGFNPMITKRLIEFVEEKAIFHSMHVNKGIGYAIGACLMMFVNGLTFNHFFHTSQLTGVQAKSILTKAAMKKMFNASNYARHCFPNGKVTSFVTTDLARIEFALSFQPFLAGFPAILAICIVLLIVNLGPIALVGIGIFFGGFFISLFAFKLILGFRIAANIFTDARVTMMREVLNNIKMIKYYTWEDAYEKNIQDIRTKEISKVRKMQLSRNFLIAMAMSLPSIASLVTFLAMYKVNKGGRQPGNIFASLSLFQVLSLQMFFLPIAIGTGIDMIIGLGRLQSLLEAPEDDPNQMIEMKPSPGFDPKLALKMTHCSFEWEDYELNDAIEEAKGEAKDEGKKNKKKRKDTWGKPSASTNKAKRLDNMLKDRDGPEDLEKTSFRGFKDLNFDIKKGEFIMITGPIGTGKSSLLNAMAGSMRKTDGKVEVNGDLLMCGYPWIQNASVRDNIIFGSPFNKEKYDEVVRVCSLKADLDILPAGDMTEIGERGITLSGGQKARINLARSVYKKKDIYLFDDVLSAVDSRVGKHIMDECLTGMLANKTRILATHQLSLIERASRVIVLGTDGQVDIGTVDELKARNQTLINLLQFSSQNSEKEDEEQEAVVAGELGQLKYESEVKELTELKKKATEMSQTANSGKIVADGHTSSKEERAVNSISLKIYREYIKAAVGKWGFIALPLYAILVVGTTFCSLFSSVWLSYWTENKFKNRPPSFYMGLYSFFVFAAFIFMNGQFTILCAMGIMASKWLNLRAVKRILHTPMSYIDTTPLGRILNRFTKDTDSLDNELTESLRLMTSQFANIVGVCVMCIVYLPWFAIAIPFLLVIFVLIADHYQSSGREIKRLEAVQRSFVYNNLNEVLGGMDTIKAYRSQERFLAKSDFLINKMNEAGYLVVVLQRWVGIFLDMVAIAFALIITLLCVTRAFPISAASVGVLLTYVLQLPGLLNTILRAMTQTENDMNSAERLVTYATELPLEASYRKPEMTPPESWPSMGEIIFENVDFAYRPGLPIVLKNLNLNIKSGEKIGICGRTGAGKSTIMSALYRLNELTAGKILIDNVDISQLGLFDLRRKLAIIPQDPVLFRGTIRKNLDPFNERTDDELWDALVRGGAIAKDDLPEVKLQKPDENGTHGKMHKFHLDQAVEEEGSNFSLGERQLLALTRALVRQSKILILDEATSSVDYETDGKIQTRIVEEFGDCTILCIAHRLKTIVNYDRILVLEKGEVAEFDTPWTLFSQEDSIFRSMCSRSGIVENDFENRS
In the case of B2, the “medrep (log2 median colony size normalized to plate background, PCA score)” value in test [1] came out at 2.579; in test [2], 1.486; in test [3], 2.696; in test [4], 1.516; in test [5], 2.579. Besides, the “Ratio (SH3-deleted/WT medrep)” value is recorded as 0.1 in test [1], 2.5 in test [2] and 0.4155 in test [4] (setting [7]).

B3: YBL085W (protein, UniProt P38041 1-980, looked up)
BEM1-interacting protein 1: MSLEGNTLGKGAKSFPLYIAVNQYSKRMEDELNMKPGDKIKVITDDGEYNDGWYYGRNLRTKEEGLYPAVFTKRIAIEKPENLHKSPTQESGNSGVKYGNLNDSASNIGKVSSHQQENRYTSLKSTMSDIDKALEELRSGSVEQEVSKSPTRVPEVSTPQLQDEQTLIQEKTRNEENTTHDSLFSSTADLNLSSESLKNISKSNISTKSLEPSSESVRQLDLKMAKSWSPEEVTDYFSLVGFDQSTCNKFKEHQVSGKILLELELEHLKELEINSFGIRFQIFKEIRNIKSAIDSSSNKLDADYSTFAFENQAAQLMPAATVNRDEIQQQISSKCNKLSSESSDRKSSSVTTELQRPSSVVVNPNFKLHDPAEQILDMTEVPNLFADKDIFESPGRAPKPPSYPSPVQPPQSPSFNNRYTNNNARFPPQTTYPPKNKNPTVYSNGLIPNSSTSSDNSTGKFKFPAMNGHDSNSRKTTLTSATIPSINTVNTDESLPAISNISSNATSHHPNRNSVVYNNHKRTESGSSFVDLFNRISMLSPVKSSFDEEETKQPSKASRAVFDSARRKSSYGHSRDASLSEMKKHRRNSSILSFFSSKSQSNPTSPTKQTFTIDPAKMTSHSRSQSNSYSHARSQSYSHSRKHSLVTSPLKTSLSPINSKSNIALAHSETPTSSNNKEAVSQPSEGKHKHKHKHKSKHKHKNSSSKDGSSEEKSKKKLFSSTKESFVGSKEFKRSPSELTQKSTKSILPRSNAKKQQTSAFTEGIRSITAKESMQTADCSGWMSKKGTGAMGTWKQRFFTLHGTRLSYFTNTNDEKERGLIDITAHRVLPASDDDRLISLYAASLGKGKYCFKLVPPQPGSKKGLTFTEPRVHYFAVENKSEMKAWLSAIIKATIDIDTSVPVISSYATPTIPLSKAQTLLEEARLQTQLRDAEEEEGRDQFGWDDTQNKRNSNYPIEQDQFETSDYLESSAFEYPGGRL
As for B3, the “medrep (log2 median colony size normalized to plate background, PCA score)” value was found to be 2.78 in test [1], 1.7279 in test [2], 3.465 in test [3] and 1.5623 in test [5]. The “Ratio (SH3-deleted/WT medrep)” value in test [1] is 0.1; in test [5], 0.5621.

B4: YCR002C (protein, UniProt P25342 1-322, looked up)
Cell division control protein …: MDPLSSVQPASYVGFDTITNQIEHRLLKKGFQFNIMVVGQSGLGKSTLINTLFASHLIDSATGDDISALPVTKTTEMKISTHTLVEDRVRLNINVIDTPGFGDFIDNSKAWEPIVKYIKEQHSQYLRKELTAQRERFITDTRVHAILYFLQPNGKELSRLDVEALKRLTEIANVIPVIGKSDTLTLDERTEFRELIQNEFEKYNFKIYPYDSEELTDEELELNRSVRSIIPFAVVGSENEIEINGETFRGRKTRWSAINVEDINQCDFVYLREFLIRTHLQDLIETTSYIHYEGFRARQLIALKENANSRSSAHMSSNAIQR
B4: the “medrep (log2 median colony size normalized to plate background, PCA score)” value in test [6] is listed as 2.496; in test [1], 3.007; in test [2], 1.419; in test [3], 1.509; in test [5], 3.007. For the same molecule, the “Ratio (SH3-deleted/WT medrep)” value in test [1] and in test [2] was 0.1 in each case.

B5: YBR200W (protein, UniProt P29366 1-551, looked up)
Bud emergence protein 1: MLKNFKLSKRDSNGSKGRITSADISTPSHDNGSVIKHIKTVPVRYLSSSSTPVKSQRDSSPKNRHNSKDITSPEKVIKAKYSYQAQTSKELSFMEGEFFYVSGDEKDWYKASNPSTGKEGVVPKTYFEVFDRTKPSSVNGSNSSSRKVTNDSLNMGSLYAIVLYDFKAEKADELTTYVGENLFICAHHNCEWFIAKPIGRLGGPGLVPVGFVSIIDIATGYATGNDVIEDIKSVNLPTVQEWKSNIARYKASNISLGSVEQQQQQSITKPQNKSAKLVDGELLVKASVESFGLEDEKYWFLVCCELSNGKTRQLKRYYQDFYDLQVQLLDAFPAEAGKLRDAGGQWSKRIMPYIPGPVPYVTNSITKKRKEDLNIYVADLVNLPDYISRSEMVHSLFVVLNNGFDREFERDENQNNIKTLQENDTATFATASQTSNFASTNQDNTLTGEDLKLNKKLSDLSLSGSKQAPAQSTSGLKTTKIKFYYKDDIFALMLKGDTTYKELRSKIAPRIDTDNFKLQTKLFDGSGEEIKTDSQVSNIIQAKLKISVHDI
As for B5, the “medrep (log2 median colony size normalized to plate background, PCA score)” value in test [6] is 1.73; in test [1], 1.887; in test [2], 3.166; in test [3], 4.509; in test [5], 4.2138. Further, the “Ratio (SH3-deleted/WT medrep)” value is 2.5 in test [6] (setting [7]) and 0.4478 in test [1].
